Measured values as given in paper doi:10.1101/2023.10.23.563594 (bioRxiv, 2023).

T1: full-length unlabelled RING1B-PCGF4 catalytic dimer (human, UniProt Q99496-1;P35226)
T1 sequence 1: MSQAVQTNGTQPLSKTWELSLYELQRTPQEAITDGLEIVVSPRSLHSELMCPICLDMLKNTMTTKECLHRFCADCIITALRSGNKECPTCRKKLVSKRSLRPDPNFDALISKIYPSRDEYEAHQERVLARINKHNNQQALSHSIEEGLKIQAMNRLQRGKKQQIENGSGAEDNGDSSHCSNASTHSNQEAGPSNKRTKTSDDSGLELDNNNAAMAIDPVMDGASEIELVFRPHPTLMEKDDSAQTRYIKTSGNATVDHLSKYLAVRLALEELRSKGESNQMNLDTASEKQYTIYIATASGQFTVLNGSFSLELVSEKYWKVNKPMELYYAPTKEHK
T1 sequence 2: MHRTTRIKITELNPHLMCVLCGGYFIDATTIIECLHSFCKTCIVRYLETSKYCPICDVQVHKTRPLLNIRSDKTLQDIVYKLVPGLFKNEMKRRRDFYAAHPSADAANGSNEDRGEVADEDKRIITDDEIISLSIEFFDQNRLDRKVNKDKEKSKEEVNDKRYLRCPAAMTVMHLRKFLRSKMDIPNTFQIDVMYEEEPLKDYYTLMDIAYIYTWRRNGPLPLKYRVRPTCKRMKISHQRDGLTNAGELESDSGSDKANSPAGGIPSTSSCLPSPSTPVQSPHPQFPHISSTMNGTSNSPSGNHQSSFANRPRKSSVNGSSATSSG

B1: E3 ubiquitin ligase subunit RING1B, full-length, co-expressed in the vPRC1.4 complex (natural protein)
chain: MSQAVQTNGTQPLSKTWELSLYELQRTPQEAITDGLEIVVSPRSLHSELMCPICLDMLKNTMTTKECLHRFCADCIITALRSGNKECPTCRKKLVSKRSLRPDPNFDALISKIYPSRDEYEAHQERVLARINKHNNQQALSHSIEEGLKIQAMNRLQRGKKQQIENGSGAEDNGDSSHCSNASTHSNQEAGPSNKRTKTSDDSGLELDNNNAAMAIDPVMDGASEIELVFRPHPTLMEKDDSAQTRYIKTSGNATVDHLSKYLAVRLALEELRSKGESNQMNLDTASEKQYTIYIATASGQFTVLNGSFSLELVSEKYWKVNKPMELYYAPTKEHK
B2: RING1 and YY1-binding protein (RYBP), full-length wild type, co-expressed in the vPRC1.4 complex (natural protein)
chain: MTMGDKKSPTRPKRQAKPAADEGFWDCSVCTFRNSAEAFKCSICDVRKGTSTRKPRINSQLVAQQVAQQYATPPPPKKEKKEKVEKQDKEKPEKDKEISPSVTKKNTNKKTKPKSDILKDPPSEANSIQSANATTKTSETNHTSRPRLKNVDRSTAQQLAVTVGNVTVIITDFKEKTRSSSTSSSTVTSSAGSEQQNQSSSGSESTDKGSSRSSTPKGDMSAVNDESF
B3: RYBP A63T, co-expressed with RING1B and PCGF4 (natural protein)
chain: MTMGDKKSPTRPKRQAKPAADEGFWDCSVCTFRNSAEAFKCSICDVRKGTSTRKPRINSQLVTQQVAQQYATPPPPKKEKKEKVEKQDKEKPEKDKEISPSVTKKNTNKKTKPKSDILKDPPSEANSIQSANATTKTSETNHTSRPRLKNVDRSTAQQLAVTVGNVTVIITDFKEKTRSSSTSSSTVTSSAGSEQQNQSSSGSESTDKGSSRSSTPKGDMSAVNDESF
B4: RYBP Q69K, co-expressed with RING1B and PCGF4 (natural protein)
chain: MTMGDKKSPTRPKRQAKPAADEGFWDCSVCTFRNSAEAFKCSICDVRKGTSTRKPRINSQLVAQQVAQKYATPPPPKKEKKEKVEKQDKEKPEKDKEISPSVTKKNTNKKTKPKSDILKDPPSEANSIQSANATTKTSETNHTSRPRLKNVDRSTAQQLAVTVGNVTVIITDFKEKTRSSSTSSSTVTSSAGSEQQNQSSSGSESTDKGSSRSSTPKGDMSAVNDESF
B5: Polycomb group ring-finger subunit PCGF4, full-length, co-expressed in the vPRC1.4 complex (natural protein)
chain: MHRTTRIKITELNPHLMCVLCGGYFIDATTIIECLHSFCKTCIVRYLETSKYCPICDVQVHKTRPLLNIRSDKTLQDIVYKLVPGLFKNEMKRRRDFYAAHPSADAANGSNEDRGEVADEDKRIITDDEIISLSIEFFDQNRLDRKVNKDKEKSKEEVNDKRYLRCPAAMTVMHLRKFLRSKMDIPNTFQIDVMYEEEPLKDYYTLMDIAYIYTWRRNGPLPLKYRVRPTCKRMKISHQRDGLTNAGELESDSGSDKANSPAGGIPSTSSCLPSPSTPVQSPHPQFPHISSTMNGTSNSPSGNHQSSFANRPRKSSVNGSSATSSG
B6: RYBP full-length, 15N- or 13C/15N-labelled, from E. coli (natural protein)
chain: MTMGDKKSPTRPKRQAKPAADEGFWDCSVCTFRNSAEAFKCSICDVRKGTSTRKPRINSQLVAQQVAQQYATPPPPKKEKKEKVEKQDKEKPEKDKEISPSVTKKNTNKKTKPKSDILKDPPSEANSIQSANATTKTSETNHTSRPRLKNVDRSTAQQLAVTVGNVTVIITDFKEKTRSSSTSSSTVTSSAGSEQQNQSSSGSESTDKGSSRSSTPKGDMSAVNDESF
modifications: uniform 15N or 13C/15N isotope labelling

Experiments:
[1] = molecular target: B2; experiment: SEC-MALS
[2] = molecular target: B1; experiment: cross-linking
[3] = molecular target: B5; experiment: cross-linking
[4] = molecular target: B1; experiment: pull-down
[5] = molecular target: B5; experiment: pull-down
[6] = molecular target: B1; experiment: SEC-MALS
[7] = molecular target: T1, full-length unlabelled RING1B-PCGF4 …; experiment: pull-down

Row | Binder | stoichiometry N [1] | binding result [4] | binding result [5] | further results
1 | B1 | 1 |  |  | 
2 | B2 |  |  |  | binding result [2]: binds; binding result [3]: binds
3 | B3 |  | binds | binds | 
4 | B4 |  | binds | binds | 
5 | B5 | 1 |  |  | stoichiometry N [6]: 1
6 | B6 |  |  |  | binding result [7]: binds
